From patent US20120014911A1 (published 2012) come the findings set out here.

The test addresses T1, endogenous PKD1 from 293T cells (human, UniProt Q15139 1-912).
T1 construct: also called PKD1/PKCµ
T1 sequence (looked up): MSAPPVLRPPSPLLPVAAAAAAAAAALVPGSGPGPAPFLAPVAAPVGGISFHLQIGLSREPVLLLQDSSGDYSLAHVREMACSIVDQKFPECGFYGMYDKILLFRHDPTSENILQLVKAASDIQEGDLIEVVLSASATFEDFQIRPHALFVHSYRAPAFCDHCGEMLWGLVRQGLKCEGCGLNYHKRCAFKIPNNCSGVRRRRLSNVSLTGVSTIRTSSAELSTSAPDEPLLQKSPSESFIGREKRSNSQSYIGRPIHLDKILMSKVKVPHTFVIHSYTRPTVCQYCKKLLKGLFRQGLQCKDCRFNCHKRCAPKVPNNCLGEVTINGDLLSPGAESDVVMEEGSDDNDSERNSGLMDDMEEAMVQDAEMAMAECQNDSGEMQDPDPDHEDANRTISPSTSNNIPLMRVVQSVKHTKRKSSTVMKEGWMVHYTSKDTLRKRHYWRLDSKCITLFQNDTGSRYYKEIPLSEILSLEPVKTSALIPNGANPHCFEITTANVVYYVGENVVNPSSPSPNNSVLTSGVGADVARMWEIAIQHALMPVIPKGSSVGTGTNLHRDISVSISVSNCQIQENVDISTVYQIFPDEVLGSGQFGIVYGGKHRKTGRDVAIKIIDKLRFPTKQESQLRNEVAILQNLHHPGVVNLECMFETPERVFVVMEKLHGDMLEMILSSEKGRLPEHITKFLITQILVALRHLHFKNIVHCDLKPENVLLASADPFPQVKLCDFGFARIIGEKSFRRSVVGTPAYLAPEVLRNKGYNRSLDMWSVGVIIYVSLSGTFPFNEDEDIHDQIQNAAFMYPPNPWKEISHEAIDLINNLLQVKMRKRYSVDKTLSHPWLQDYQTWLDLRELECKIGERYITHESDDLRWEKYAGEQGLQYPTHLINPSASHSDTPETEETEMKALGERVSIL
Put plainly: co-immunoprecipitation of endogenous proteins from 293T cell lysates, untreated or treated with IFN-α.

B1: endogenous IFNAR1 from 293T cells (receptor, human, UniProt P17181 28-557, looked up)
chain: KNLKSPQKVEVDIIDDNFILRWNRSDESVGNVTFSFDYQKTGMDNWIKLSGCQNITSTKCNFSSLKLNVYEEIKLRIRAEKENTSSWYEVDSFTPFRKAQIGPPEVHLEAEDKAIVIHISPGTKDSVMWALDGLSFTYSLVIWKNSSGVEERIENIYSRHKIYKLSPETTYCLKVKAALLTSWKIGVYSPVHCIKTTVENELPPPENIEVSVQNQNYVLKWDYTYANMTFQVQWLHAFLKRNPGNHLYKWKQIPDCENVKTTQCVFPQNVFQKGIYLLRVQASDGNNTSFWSEEIKFDTEIQAFLLPPVFNIRSLSDSFHIYIGAPKQSGNTPVIQDYPLIYEIIFWENTSNAERKIIEKKTDVTVPNLKPLTVYCVKARAHTMDEKLNKSSVFSDAVCEKTKPGNTSKIWLIVGICIALFALPFVIYAAKVFLRCINYVFFPSLKPSSSIDEYFSEQPLKNLLLSTSEEQIEKCFIIENISTIATVEETNQTDEDHKKYSSQTSQDSGNYSNEDESESKTSEELQQDFV
notes: also called the receptor
Take B1: the binding result is reported as “no binding”.
